Test results taken from IntAct's records for PubMed 31036956.

B1: Proto-oncogene Wnt-3 (Homo sapiens), P56703 (parent)
chain: MEPHLLGLLLGLLLGGTRVLAGYPIWWSLALGQQYTSLGSQPLLCGSIPGLVPKQLRFCRNYIEIMPSVAEGVKLGIQECQHQFRGRRWNCTTIDDSLAIFGPVLDKATRESAFVHAIASAGVAFAVTRSCAEGTSTICGCDSHHKGPPGEGWKWGGCSEDADFGVLVSREFADARENRPDARSAMNKHNNEAGRTTILDHMHLKCKCHGLSGSCEVKTCWWAQPDFRAIGDFLKDKYDSASEMVVEKHRESRGWVETLRAKYSLFKPPTERDLVYYENSPNFCEPNPETGSFGTRDRTCNVTSHGIDGCDLLCCGRGHNTRTEKRKEKCHCIFHWCCYVSCQECIRIYDVHTCK

Variants of: B1
Conditions: with lrp6_human LRP6, O75581
lrp6_human LRP6, O75581, sequence (O75581 whole entry): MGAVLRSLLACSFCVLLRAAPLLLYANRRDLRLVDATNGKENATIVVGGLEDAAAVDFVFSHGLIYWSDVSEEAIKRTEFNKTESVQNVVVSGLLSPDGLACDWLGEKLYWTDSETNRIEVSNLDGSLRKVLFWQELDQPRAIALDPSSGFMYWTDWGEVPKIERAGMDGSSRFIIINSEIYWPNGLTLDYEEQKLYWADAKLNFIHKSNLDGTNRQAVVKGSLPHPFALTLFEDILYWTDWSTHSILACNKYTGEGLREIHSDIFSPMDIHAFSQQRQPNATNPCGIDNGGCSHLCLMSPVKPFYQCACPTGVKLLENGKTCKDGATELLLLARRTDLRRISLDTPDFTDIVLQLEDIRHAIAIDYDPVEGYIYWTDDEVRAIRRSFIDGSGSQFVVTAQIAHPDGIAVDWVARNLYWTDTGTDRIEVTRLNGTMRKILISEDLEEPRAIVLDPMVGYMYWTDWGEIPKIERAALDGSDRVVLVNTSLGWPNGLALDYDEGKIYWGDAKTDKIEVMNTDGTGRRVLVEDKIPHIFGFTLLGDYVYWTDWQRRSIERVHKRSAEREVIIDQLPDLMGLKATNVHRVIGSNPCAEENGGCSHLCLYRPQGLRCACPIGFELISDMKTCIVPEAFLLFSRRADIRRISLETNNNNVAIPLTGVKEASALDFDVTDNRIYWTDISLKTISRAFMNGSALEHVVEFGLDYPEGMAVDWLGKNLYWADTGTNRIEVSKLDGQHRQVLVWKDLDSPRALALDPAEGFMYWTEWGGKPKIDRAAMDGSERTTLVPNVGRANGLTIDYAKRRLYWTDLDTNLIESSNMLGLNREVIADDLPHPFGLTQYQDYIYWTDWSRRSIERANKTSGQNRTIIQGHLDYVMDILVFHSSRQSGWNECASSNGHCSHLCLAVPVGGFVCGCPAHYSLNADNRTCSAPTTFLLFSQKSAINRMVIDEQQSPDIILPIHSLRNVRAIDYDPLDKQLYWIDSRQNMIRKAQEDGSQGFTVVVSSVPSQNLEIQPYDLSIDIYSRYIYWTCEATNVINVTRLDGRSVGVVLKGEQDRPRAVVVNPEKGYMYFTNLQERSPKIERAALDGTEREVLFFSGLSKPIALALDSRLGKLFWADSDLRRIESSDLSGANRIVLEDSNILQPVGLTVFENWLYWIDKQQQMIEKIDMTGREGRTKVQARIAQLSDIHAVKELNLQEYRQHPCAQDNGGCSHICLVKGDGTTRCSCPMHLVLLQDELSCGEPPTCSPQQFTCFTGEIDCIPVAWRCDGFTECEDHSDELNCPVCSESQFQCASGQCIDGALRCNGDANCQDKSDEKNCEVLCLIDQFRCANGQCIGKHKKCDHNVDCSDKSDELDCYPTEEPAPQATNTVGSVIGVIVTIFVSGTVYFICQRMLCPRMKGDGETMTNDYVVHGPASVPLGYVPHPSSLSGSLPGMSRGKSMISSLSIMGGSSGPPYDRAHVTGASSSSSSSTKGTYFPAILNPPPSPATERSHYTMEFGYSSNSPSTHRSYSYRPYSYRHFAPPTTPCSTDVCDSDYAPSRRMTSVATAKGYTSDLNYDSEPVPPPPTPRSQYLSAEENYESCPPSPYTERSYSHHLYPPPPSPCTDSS

Variant | effect of a mutation on the interaction
R253E | disrupting interaction
